In US10583180B2, “Method for treating adenosine deaminase severe combined imunodeficiency” (UCL Business PLC, priority 2015, dated 2020):
Entries after “also recorded” stand apart in the source; their conditions may differ.

B1: PEG-ADA: bovine form of ADA conjugated to polyethylene glycol; enzyme replacement therapy (conjugate, UniProt P56658 2-363, looked up)
Adenosine deaminase: AQTPAFNKPKVELHVHLDGAIKPETILYYGRKRGIALPADTPEELQNIIGMDKPLSLPEFLAKFDYYMPAIAGCREAVKRIAYEFVEMKAKDGVVYVEVRYSPHLLANSKVEPIPWNQAEGDLTPDEVVSLVNQGLQEGERDFGVKVRSILCCMRHQPSWSSEVVELCKKYREQTVVAIDLAGDETIEGSSLFPGHVKAYAEAVKSGVHRTVHAGEVGSANVVKEAVDTLKTERLGHGYHTLEDATLYNRLRQENMHFEVCPWSSYLTGAWKPDTEHPVVRFKNDQVNYSLNTDDPLIFKSTLDTDYQMTKNEMGFTEEEFKRLNINAAKSSFLPEDEKKELLDLLYKAYGMPSPASAEQCL
modifications: PEG conjugate (pegademase bovine)
notes: bovine form of ADA conjugated to polyethylene glycol; enzyme replacement therapy

Assays:
[1] = tested on: ADA-deficient SCID; test: Phase I/II clinical trial of autologous CD34+ cells transduced with EFS-ADA lentiviral vector; assay type: in vivo, human; details: weight adjusted dose prior to reinfusion
Source text: For the non-controlled, non-randomised Phase I/II clinical trial, to assess the safety and efficacy of autologous transplantation of CD34+ cells from ADA-deficient SCID infants following human ADA cDNA transfer by the EFS-ADA lentiviral vector, subjects received the infusion of their autologous, transduced cells following marrow cytoreduction with busulfan.
Patients were selected on the basis of inclusion and exclusion criteria detailed below. A back-up harvest was retained in case of failure of reconstitution following conditioning and re-infusion of transduced cells. For the transduction protocol, CD34+ cells were purified from G-CSF mobilised PBSCs recovered by leukapheresis (Plerixafor could be added to enhance mobilization), whenever possible or from bone marrow harvested under general anaesthetic. Back up cells of 3×10^6 CD34+/kg were stored from a single procedure if sufficient cell counts were available (and if not previously stored). The remaining CD34+ cells were taken forward for transduction. […] After purification, CD34+ cells were immediately transduced with the lentiviral vector, then evaluated for sterility, cell count, and viability, and immediately infused into patients. Several other tests for safety including testing for RCLs were performed on reinfused cells and results recorded retrospectively. […]

[2] = tested on: ADA-SCID patients; details: cited from earlier work
[3] = tested on: ADA−/− mice; test: Reconstitution of lethally irradiated ADA−/− mice with transduced lin-ve cells, analysed after 12 weeks; details: mouse, in vivo
Source text: Early models of ADA deficient mice were limited by embryonic or peri-natal lethality as a result of severe hepatocellular and pulmonary damage. A two stage transgenic strategy in which ADA expression is restricted to trophoblasts rescues ADA null mice from pre- and peri-natal lethality and allows post-natal study of mice lacking ADA expression. In this model, many features of the human disease are accurately represented. Mice show abnormalities of thymic architecture with a significant block in thymocyte development at the CD4-CD8- double negative stage. […] In the periphery, there is a profound lymphopaenia with a severe T, B and NK cell deficiency that is seen in humans together with abnormalities in splenic lymphoid architecture and a paucity of splenic T cell populations. Murine ADA deficiency also manifests a number of non-immunological abnormalities including lung, renal, costochondral and neurological changes. Pulmonary problems are present in mice from ˜postnatal day 12 and are associated with significant lung inflammatory changes, eventually leading to the death of mice by postnatal day 22 from pulmonary insufficiency, unless early treatment is initiated. […] Mice were analysed after 12 weeks and compared with ADA−/− mice, mice that had undergone wild type transplant experiments (WT) or mice that had been treated with enzyme replacement therapy alone. […]

Molecule	toxicities of conditioning [1]	overall probability of surviving 20 years on ERT ([2]; estimated)	enzyme activity on a ml to ml basis relative to packed erythrocytes ([2]; in vivo)	patients developing antibodies against bovine epitopes ([2]; in vivo)	probability of surviving the next 12 years ([2]; patient alive 6 months after starting ERT)	T cells in the mononuclear fraction of peripheral blood [3]
CS(=O)(=O)OCCCCOS(C)(=O)=O [Busulfan]	No toxicities; also recorded: without any significant toxicity	–	–	–	–	–
B1	–	78%	~1800 times	~50%	about 90%	marked increase in T cell recovery
